In PMC6105031, “The crystal structure of KSHV ORF57 reveals dimeric active sites important for protein stability and function” (PLoS Pathogens, 2018):

B1: C-terminal domain (CTD) of KSHV ORF57 (residues 167 to 455) (domain or fragment)
chain: GVSDAVKKLRLPASMIIDGESPRFDDSIIPRHHGACFNVFIPAPPSHVPEVFTDRDITALIRAGGKDDELINKKISAKKIDHLHRQMLSFVTSRHNQAYWVSCRRETAAAGGLQTLGAFVEEQMTWAQTVVRHGGWFDEKDIDIILDTAIFVCNAFVTRFRLLHLSCVFDKQSELALIKQVAYLVAMGNRLVEACNLLGEVKLNFRGGLLLAFVLTIPGMQSRRSISARGQELFRTLLEYYRPGDVMGLLNVIVMEHHSLCRNSECAAATRAAMGSAKFNKGLFFYPLS
notes: KSHV ORF57 (MTA), residues 167 to 455, GenBank ABD28908.1; Crystallised as a dimer (spindle-shaped crystal) and as a monomer (cubic crystal, 4.0 M LiCl); also called ORF57-CTD; source: E. coli BL21 (DE3), purified (Ni-NTA, ULP1 digestion, Superdex 75); not shown: His6, N-terminal, cleaved; SUMO (Smt3 of Saccharomyces cerevisiae), N-terminal, cleaved

How the values were obtained:
[1] = molecular target: GFP-tagged full-length ORF57 with all three disrupted nuclear localization signals (ORF57 mt1+2+3) (UniProt Q2HR75); experiment: nuclear translocation assay (fluorescence microscopy of cotransfected cells)
[2] = molecular target: the molecule itself; experiment: crystal structure; spindle-shaped crystal, sitting-drop vapor diffusion at 4°C, 0.1 M BIS-TRIS propane pH 7.0, 0.8 M lithium sulfate; space group P6(4)22, two molecules in the asymmetric unit, 3.5 Å
[3] = COS-1 cells, 50 double-color positive cells counted, parent: 88

Row | Molecule | other: % cells with nuclear translocation [1, 3] [%] | other results
1 | FLAG-tagged full-length ORF57 (from UniProt Q2HR75) C333S; H423L; C427S; C432S |  | other: % cells with nuclear translocation ([1]; n=50): 0%
2 | FLAG-tagged full-length ORF57 (from UniProt Q2HR75) R325A; R327A | 4 | 
3 | FLAG-tagged full-length ORF57 (from UniProt Q2HR75) W292P | 0 | 
4 | B1 |  | stoichiometry N [2]: 2
